These are literature values, as cited in article PMC6473736.

The target in the series is Nterm (UniProt position 2, ----MVHLTPE). The settings on record: not stated (haem ligation state not given).

As to “Human haemoglobin (adult Hb, alpha2beta2) (Homo sapiens)”, the pKa entry was “approximately 7.8 (α-chain) and 6.8 (β-chain)”.
